Laboratory results published in PMC3115021, “Dynamics of Cdk1 Substrate Specificity during the Cell Cycle” (Molecular Cell, 2011).

Experiments:
Test in all cases: Quantitative phosphorylation assay of T33-Sic1ΔC constructs and recombinant substrates
Type in all cases: biochemical
Conditions in all cases: Table S2; purified protein substrate; relative values, not divided by [S]
[1] = target: T1, Clb2-Cdk1 (Saccharomyces cerevisiae, UniProt P00546+P24869)
T1 construct: We purified the four cyclin-Cdk1 complexes from yeast; made in house; host or cells: S. cerevisiae strain DOM0077 (gal-CLB2-TAP, sic1 deleted); Cks1 from bacteria

[2] = target: T2, Clb3-Cdk1 (Saccharomyces cerevisiae, UniProt P00546+P24870)
T2 construct: We purified the four cyclin-Cdk1 complexes from yeast; made in house; host or cells: S. cerevisiae strain DOM0957 (gal-CLB3-TAP, sic1 deleted); Cks1 from bacteria

[3] = target: T3, Clb5-Cdk1 (Saccharomyces cerevisiae, UniProt P00546+P30283)
T3 construct: We purified the four cyclin-Cdk1 complexes from yeast; made in house; host or cells: S. cerevisiae strain DOM0076 (gal-CLB5-TAP, sic1 deleted); Cks1 from bacteria

[4] = target: T4, Cln2-Cdk1 (Saccharomyces cerevisiae, UniProt P00546+P20438)
T4 construct: We purified the four cyclin-Cdk1 complexes from yeast; made in house; host or cells: S. cerevisiae strain DMY305 (galactose-induced); Cks1 from bacteria

[5] = target: T5, Clb2hpm-Cdk1 (Saccharomyces cerevisiae, UniProt P00546)
T5 construct: made in house; host or cells: S. cerevisiae strain DOM0964 (gal-CLB2hpm-TAP, sic1 deleted); Cks1 from bacteria
Procedure: (§1) For the quantitative phosphorylation assays of T33-Sic1ΔC constructs and recombinant substrates, substrate concentrations were kept in the range of 0.5–2 μM (in the linear [S] versus v0 range, several-fold below the estimated KM value), and initial velocity conditions were defined as an initial substrate turnover of up to 10% of the total turnover. For the steady-state peptide kinetics of the Histone peptide PKTPKKAKKL, a similar assay composition was used as for protein substrates, and phosphocellulose paper was used for the quantification of the phosphorylated substrate.
(§2) Supplemental Experimental Procedures
(§3) Plasmid constructs and yeast strains
(§4) For tandem affinity purification (TAP) of cyclin-Cdk1 complexes, the cyclin genes were cloned into the 2 micron vector pRSAB1234 containing a GAL1 promoter and the C-terminal TAP-tag. To purify different 6His-T33-Sic1ΔC forms for kinase assays, the C-terminally truncated fragment of Sic1 (with a stop codon inserted after amino acid 215) was cloned into the NheI/BamHI site of the bacterial expression vector pET28a (Invitrogen). Mutagenesis of cyclins or substrates was performed using single-stranded pRSAB1234 or pET28a vector constructs as templates. The triple mutants in the hydrophobic patch (hpm) of Clb5 and Clb2 were described previously (Loog and Morgan, 2005), and the hpm of Clb3 (Phe-201, Leu-205 and Trp-208 mutated to alanines) was designed according to sequence homology with other B-type cyclins. In T33-Sic1ΔC constructs, the other Cdk sites bearing the consensus motif S/T-P were mutated to Ala-Ala in order to prevent any possible (pseudo)substrate competition. The other Cdk substrates were cloned as full-length forms into bacterial expression vectors pET28a or pGEX-4T-1. Cdh1 was purified using the baculovirus system and was a kind gift from Monica Rodrigo-Brenni (UCSF). […]
The […]
(§5) pRSAB1234 analogously to the cyclin-Cdk1 complexes. For C-terminal tagging of cyclin genes in their chromosomal loci, the Pringle method was applied (Longtine et al., 1998). Lists of plasmid […]
(§6) The TAP method was applied for purification of cyclin-Cdk1 complexes and Swe1 as described previously for Clb5-TAP-Cdk1 and Clb2-TAP-Cdk1 (Puig et al., 2001; Ubersax et al., 2003). […]
(§7) tagged recombinant T33-Sic1ΔC constructs and substrates were cloned into the pET28a vector and purified by standard cobalt affinity chromatography and elution with 200 mM imidazole. 6His-Fin1 was purified as described previously (Woodbury and Morgan, 2007). Substrates cloned into the pGEX-4T-1 were purified on glutathione agarose columns using 5 mM reduced glutathione for elution. Cks1 was purified as described previously (Reynard et al., 2000). The optimal working concentration for purified Cks1 was taken as 500 nM based on optimization performed for cyclin-Cdk1 preparations and T33-Sic1ΔC as a substrate.
(§8) For the quantitative phosphorylation assays of T33-Sic1ΔC constructs and recombinant substrates, substrate concentrations were kept in the range of 0.5-2 μM (in the linear [S] vs v0 range, several-fold below the estimated KM value), and the initial velocity conditions were defined as an initial substrate turnover ranging up to 10% of the total turnover. The latter was estimated by a long-term incubation with excess amounts of cyclin-Cdk1 and 32P-γ-ATP in the standard reaction mixture given below. About 1-10 nM of purified kinase complex was used, reaction aliquots were taken at two or more time points, and the reaction was stopped by SDS-PAGE sample buffer. The relative kcat/KM values for the substrates were calculated as the ratio of v0/[S], which was determined from at least two independent experiments. The basal composition of the assay mixture contained 50 mM Hepes, pH 7.4, 100 mM NaCl, 0.1% NP-40, 20 mM imidazole, 0.1 mg/ml 2HA peptide, 2% glycerol, 2 mM EGTA, 0.2 mg/ml BSA, […], and 500 μM ATP (with added 32P-γ-ATP (Perkin Elmer)).
(§9) About 1-10 nM of purified kinase complex was used, reaction aliquots were taken at two or more […]

[6] = target: T6, Clb3hpm-Cdk1 (Saccharomyces cerevisiae, UniProt P00546+P24870)
T6 construct: made in house; host or cells: S. cerevisiae strain MK0168 (gal-CLB3hpm-TAP, sic1 deleted); Cks1 from bacteria
Procedure: as §1, §2, §3, §4
The […]
as §5, §6, §7, §8, §9

[7] = target: T7, Clb5hpm-Cdk1 (Saccharomyces cerevisiae, UniProt P00546)
T7 construct: made in house; host or cells: S. cerevisiae strain DOM0963 (gal-CLB5hpm-TAP, sic1 deleted); Cks1 from bacteria
Procedure: as §1, §2, §3, §4
The […]
as §5, §6, §7, §8, §9

T7 sequence (P00546 2-298 limits assumed): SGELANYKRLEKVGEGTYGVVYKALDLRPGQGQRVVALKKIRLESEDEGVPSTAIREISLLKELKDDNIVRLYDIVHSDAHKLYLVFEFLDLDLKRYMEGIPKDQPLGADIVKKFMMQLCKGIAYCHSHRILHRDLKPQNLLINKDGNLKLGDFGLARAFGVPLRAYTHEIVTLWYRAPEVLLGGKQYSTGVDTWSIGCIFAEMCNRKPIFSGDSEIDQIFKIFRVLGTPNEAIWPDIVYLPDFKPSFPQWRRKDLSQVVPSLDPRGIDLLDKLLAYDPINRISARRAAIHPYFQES
T3 sequence (P00546 2-298 limits assumed): as above
T3 sequence (P30283 whole entry partner): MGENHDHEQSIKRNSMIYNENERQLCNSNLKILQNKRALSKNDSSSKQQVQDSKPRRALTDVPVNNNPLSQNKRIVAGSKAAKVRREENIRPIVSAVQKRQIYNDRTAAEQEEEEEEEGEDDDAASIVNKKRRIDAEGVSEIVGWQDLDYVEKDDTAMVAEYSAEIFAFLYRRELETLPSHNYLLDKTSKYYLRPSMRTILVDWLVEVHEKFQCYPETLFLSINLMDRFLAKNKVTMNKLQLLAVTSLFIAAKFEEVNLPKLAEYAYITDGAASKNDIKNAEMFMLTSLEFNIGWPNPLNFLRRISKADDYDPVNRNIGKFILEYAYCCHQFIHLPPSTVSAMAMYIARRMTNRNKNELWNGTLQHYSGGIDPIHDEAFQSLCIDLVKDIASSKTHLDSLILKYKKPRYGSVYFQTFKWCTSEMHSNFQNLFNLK
T3 sequence (P20486 whole entry partner): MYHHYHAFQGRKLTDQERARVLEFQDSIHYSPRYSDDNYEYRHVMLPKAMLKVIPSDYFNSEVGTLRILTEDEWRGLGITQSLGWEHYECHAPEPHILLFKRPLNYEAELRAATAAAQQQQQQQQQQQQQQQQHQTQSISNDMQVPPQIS
T5 sequence (P00546 2-298 limits assumed): as the sequence (P00546 2-298 limits assumed) above
T2 sequence (P00546 2-298 limits assumed): as above
T2 sequence (P24870 whole entry partner): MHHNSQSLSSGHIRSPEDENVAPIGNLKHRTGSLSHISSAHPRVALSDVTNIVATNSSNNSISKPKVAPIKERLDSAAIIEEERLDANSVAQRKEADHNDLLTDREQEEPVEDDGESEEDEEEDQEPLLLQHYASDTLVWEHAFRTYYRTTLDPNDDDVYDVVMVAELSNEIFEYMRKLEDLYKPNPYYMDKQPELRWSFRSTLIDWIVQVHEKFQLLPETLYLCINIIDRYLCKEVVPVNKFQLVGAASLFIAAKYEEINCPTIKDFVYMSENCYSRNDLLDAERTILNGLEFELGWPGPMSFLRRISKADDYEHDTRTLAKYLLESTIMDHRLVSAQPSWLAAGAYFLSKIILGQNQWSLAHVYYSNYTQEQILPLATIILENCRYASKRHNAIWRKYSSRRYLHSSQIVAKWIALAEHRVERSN
T2 sequence (P20486 whole entry partner): as the sequence (P20486 whole entry partner) above
T4 sequence (P00546 2-298 limits assumed): as the sequence (P00546 2-298 limits assumed) above
T4 sequence (P20438 whole entry partner): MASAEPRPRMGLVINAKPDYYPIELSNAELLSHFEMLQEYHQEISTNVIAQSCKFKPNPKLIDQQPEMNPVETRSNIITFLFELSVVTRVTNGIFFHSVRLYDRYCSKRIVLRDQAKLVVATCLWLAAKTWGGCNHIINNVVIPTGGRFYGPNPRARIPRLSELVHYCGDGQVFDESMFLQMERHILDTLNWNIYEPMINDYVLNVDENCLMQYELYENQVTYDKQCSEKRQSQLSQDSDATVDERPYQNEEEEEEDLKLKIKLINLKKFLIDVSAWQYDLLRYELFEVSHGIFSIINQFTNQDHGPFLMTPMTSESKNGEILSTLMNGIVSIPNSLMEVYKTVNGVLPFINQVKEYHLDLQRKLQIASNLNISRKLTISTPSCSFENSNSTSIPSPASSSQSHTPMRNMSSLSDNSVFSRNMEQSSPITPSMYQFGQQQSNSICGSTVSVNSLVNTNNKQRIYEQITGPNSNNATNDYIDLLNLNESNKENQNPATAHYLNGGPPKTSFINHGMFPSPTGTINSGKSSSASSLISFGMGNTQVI
T4 sequence (P20486 whole entry partner): as the sequence (P20486 whole entry partner) above
T1 sequence (P00546 2-298 limits assumed): as the sequence (P00546 2-298 limits assumed) above
T1 sequence (P24869 2-491 partner limits assumed): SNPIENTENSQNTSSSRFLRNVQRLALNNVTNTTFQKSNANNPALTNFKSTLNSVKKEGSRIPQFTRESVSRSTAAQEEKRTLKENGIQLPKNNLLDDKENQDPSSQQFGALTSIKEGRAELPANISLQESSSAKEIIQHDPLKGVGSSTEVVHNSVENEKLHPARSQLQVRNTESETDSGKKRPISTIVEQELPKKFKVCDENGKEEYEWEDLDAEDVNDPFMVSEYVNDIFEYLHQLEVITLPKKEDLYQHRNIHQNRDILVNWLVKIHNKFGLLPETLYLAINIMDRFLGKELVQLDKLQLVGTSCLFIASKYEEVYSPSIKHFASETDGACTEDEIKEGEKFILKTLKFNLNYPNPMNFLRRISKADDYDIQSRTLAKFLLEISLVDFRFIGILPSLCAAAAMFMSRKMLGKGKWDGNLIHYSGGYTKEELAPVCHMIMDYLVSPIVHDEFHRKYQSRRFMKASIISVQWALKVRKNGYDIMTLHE
T1 sequence (P20486 whole entry partner): as the sequence (P20486 whole entry partner) above

B1: SLI15: purified yeast protein tested as Cdk1 substrate (protein, UniProt P38283 1-698, looked up)
Inner centromere protein SLI15: MDWAIKAARKKTQRKPGSTRSIIETLDDLNNLTTDAHSEINQRLYESSEWLRNNVYMNTLKYEDKKMEESLISPENTHNKMDVEFPKMKGEYELSNSQNDAAKDVTKTPRNGLHNDKSITPKSLRRKEVTEGMNRFSIHDTNKSPVEPLNSVKVDANESEKSSPWSPYKVEKVLRESSKTSESPINTKRFDNQTWAAKEEMENEPILQALKKAESVKVKPPPNSGIARSQRRSNMFVPLPNKDPLIIQHIPPTKSSGSIPKVRTVKESPIAFKKKSTINSPAIRAVENSDTAGSTKASSVFDRLSSIPTKSFENKISRGNVGHKYSSSSIDLTGSPMKKVSQKFKSINSTDTDMQEALRDIFSVKNKITKNNSPKGKNSRKSSIPRFDKTSLKLTTHKKLAIIAEQKKKSKHSSDVHKTGSRPHSISPTKISVDSSSPSKEVKNYYQSPVRGYLRPTKASISPNKNKNLTTSQTPHRLKIKEKTLRKLSPNIADISKPESRKSKNYRLTNLQLLPPAEAERDDLKKKFDKRLSGIMRSQQEHHRRKQEKQKRMSHLEQDLKKQTSFSNDYKDIRLKESLAPFDNHVRDTINKNTAFSTDNILATINTVDHREIIGNVTPKIASVNDSLPEINTDSEDEASVTLAAWAKSPYLQEQLIRQQDINPQTIFGPIPPLHTDEIFPNPRLNRLKPRQIVPKRS
[1]
  kcat/KM, Clb2: 0.109 relative units
[2]
  kcat/KM, Clb3: 0.141 relative units
[3]
  kcat/KM, Clb5: 0.025 relative units
[4]
  kcat/KM, Cln2: 0.422 relative units
[5]
  kcat/KM, Clb2hpm: 0.060 relative units
[6]
  kcat/KM, Clb3hpm: 0.032 relative units
[7]
  kcat/KM, Clb5hpm: 0.004 relative units

B2: PXL1: purified yeast protein tested as Cdk1 substrate (protein, UniProt P36166 1-706, looked up)
Paxillin-like protein 1: MYNSIYGSPFPKINPKVRYKTALERAGFDTKPRNPFSSQRNASTGSLQASVKSPPITRQRNVSAAPSVPVTMKSAYTASSKSAYSSVKGESDIYPPPVLENSERRSVTPPKNSNFTSSRPSDISRSISRPSERASQEDPFRFERDLDRQAEQYAASRHTCKSPANKEFQAADNFPFNFEQEDAGNTEREQDLSPIERSFMMLTQNDTASVVNSMNQTDNRGVLDQKLGKEQQKEESSIEYESEGQQEDENDIESLNFEPDPKLQMNLENEPLQDDFPEAKQEEKNTEPKIPEINVTRESNTPSLTMNALDSKIYPDDNFSGLESSKEQKSPGVSSSSTKVEDLSLDGLNEKRLSITSSENVETPYTATNLQVEQLIAQLDDVSLSRNAKLDMNGNCLNAVDRKASRFKKSSAYLSGYPSMDIPVTQQTSIVQNSNTNLSRQTILVDKGDVDEDAPSESTTNGGTPIFYKFKQSNVEYSNNEGMGSQETFRTKLPTIEALQLQHKRNITDLREEIDNSKSNDSHVLPNGGTTRYSSDADYKETEPIEFKYPPGEGPCRACGLEVTGKRMFSKKENELSGQWHRECFKCIECGIKFNKHVPCYILGDEPYCQKHYHEENHSICKVCSNFIEGECLENDKVERFHVDCLNCFLCKTAITNDYYIFNGEIPLCGNHDMEALLKEGIDNATSSNDKNNTLSKRRTRLINFN
[1]
  kcat/KM, Clb2: 0.571 relative units
[2]
  kcat/KM, Clb3: 0.139 relative units
[3]
  kcat/KM, Clb5: 0.031 relative units
[4]
  kcat/KM, Cln2: 0.031 relative units
[5]
  kcat/KM, Clb2hpm: 0.244 relative units
[6]
  kcat/KM, Clb3hpm: 0.033 relative units
[7]
  kcat/KM, Clb5hpm: 0.015 relative units

B3: SWI5: purified yeast protein tested as Cdk1 substrate (protein, UniProt P08153 1-709, looked up)
Transcriptional factor SWI5: MDTSNSWFDASKVQSLNFDLQTNSYYSNARGSDPSSYAIEGEYKTLATDDLGNILNLNYGETNEVIMNEINDLNLPLGPLSDEKSVKVSTFSELIGNDWQSMNFDLENNSREVTLNATSLLNENRLNQDSGMTVYQKTMSDKPHDEKKISMADNLLSTINKSEINKGFDRNLGELLLQQQQELREQLRAQQEANKKLELELKQTQYKQQQLQATLENSDGPQFLSPKRKISPASENVEDVYANSLSPMISPPMSNTSFTGSPSRRNNRQKYCLQRKNSSGTVGPLCFQELNEGFNDSLISPKKIRSNPNENLSSKTKFITPFTPKSRVSSATSNSANITPNNLRLDFKINVEDQESEYSEKPLGLGIELLGKPGPSPTKSVSLKSASVDIMPTIPGSVNNTPSVNKVSLSSSYIDQYTPRGKQLHFSSISENALGINAATPHLKPPSQQARHREGVFNDLDPNVLTKNTDNEGDDNEENEPESRFVISETPSPVLKSQSKYEGRSPQFGTHIKEINTYTTNSPSKITRKLTTLPRGSIDKYVKEMPDKTFECLFPGCTKTFKRRYNIRSHIQTHLEDRPYSCDHPGCDKAFVRNHDLIRHKKSHQEKAYACPCGKKFNREDALVVHRSRMICSGGKKYENVVIKRSPRKRGRPRKDGTSSVSSSPIKENINKDHNGQLMFKLEDQLRRERSYDGNGTGIMVSPMKTNQR
[1]
  kcat/KM, Clb2: 2.961 relative units
[2]
  kcat/KM, Clb3: 1.686 relative units
[3]
  kcat/KM, Clb5: 0.475 relative units
[4]
  kcat/KM, Cln2: 0.178 relative units
[5]
  kcat/KM, Clb2hpm: 1.387 relative units
[6]
  kcat/KM, Clb3hpm: 0.207 relative units
[7]
  kcat/KM, Clb5hpm: 0.172 relative units
